Assay results published in patent publication US20220267464A1 (Hoffmann-La Roche, published 2022).

T1: human CEACAM5 (carcinoembryonic antigen, CEA) on cells (human, UniProt P06731 35-685)
T1 construct: endogenous on MKN45 gastric adenocarcinoma cells; full-length cDNA stably transfected in the CHO-K1 clones; also called huCEACAM5; MKN45 cells
T1 sequence: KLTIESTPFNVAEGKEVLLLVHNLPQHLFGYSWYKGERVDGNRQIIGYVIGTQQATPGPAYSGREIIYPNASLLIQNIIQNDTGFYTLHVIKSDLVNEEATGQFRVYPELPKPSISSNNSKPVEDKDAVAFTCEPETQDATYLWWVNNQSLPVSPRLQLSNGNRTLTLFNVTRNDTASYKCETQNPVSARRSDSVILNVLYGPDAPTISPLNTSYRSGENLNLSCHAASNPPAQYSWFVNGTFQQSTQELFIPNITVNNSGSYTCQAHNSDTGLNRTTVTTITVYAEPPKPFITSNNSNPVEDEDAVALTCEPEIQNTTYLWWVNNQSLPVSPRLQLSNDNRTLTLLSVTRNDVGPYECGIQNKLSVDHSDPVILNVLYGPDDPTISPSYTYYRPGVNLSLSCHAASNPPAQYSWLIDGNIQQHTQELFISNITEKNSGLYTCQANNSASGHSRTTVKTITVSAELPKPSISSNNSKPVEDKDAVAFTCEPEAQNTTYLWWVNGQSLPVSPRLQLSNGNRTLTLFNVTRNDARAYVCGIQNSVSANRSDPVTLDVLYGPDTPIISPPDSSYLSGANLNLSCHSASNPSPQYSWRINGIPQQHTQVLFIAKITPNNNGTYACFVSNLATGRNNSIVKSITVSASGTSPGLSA


Target: T1, human CEACAM5 (carcinoembryonic …)
Experiment: flow cytometry, MKN45 cells
Design: AUC: unit not given beside the values

Binder	AUC	EC50 [nM]
P1AE3107 (antibody, IgG1, V domains shown, huIgG1 P329G LALA; also called MFE-H24 / MFE-L27; huMFE23-L27-H24) VH: QVQLVQSGAEVKKPGASVKVSCKASGFNIKDSYMHWVRQAPGQGLEWMGWIDPENGDTEYAPKFQGRVTMTTDTSISTAYMELSRLRSDDTAVYYCNEGTPTGPYYFDYWGQGTLVTVSS VL: EIQMTQSPSSLSASVGDRVTITCRASSSVPYMHWYQQKPGKAPKLLIYSTSNLASGVPSRFSGSGSGTDFTLTISSVQPEDFATYYCQQRSSYPLTFGGGTKLEIK	91200	5.83
P1AE3114 (antibody, IgG1, V domains shown, huIgG1 P329G LALA; also called MFE-H29 / MFE-L25) VH: QVQLVQSGAEVKKPGSSVKVSCKASGFNIKDSYMHWVRQAPGQGLEWMGWIDPENGDTEYAPKFQGRVTITTDESTSTAYMELSSLRSEDTAVYYCNEGTPTGPYYFDYWGQGTLVTVSS VL: EIQMTQSPSSLSASVGDRVTITCRASSSVSYMHWYQQKPGKAPKLLIYSTSNLASGVPSRFSGSGSGTDFTLTISSLQPEDFATYYCQQRSSYPLTFGGGTKLEIK	12800	30.6
P1AE3102 (antibody, IgG1, V domains shown, huIgG1 P329G LALA; also called MFE-H29 / MFE-L27; huMFE23-L27-H29) VH: QVQLVQSGAEVKKPGSSVKVSCKASGFNIKDSYMHWVRQAPGQGLEWMGWIDPENGDTEYAPKFQGRVTITTDESTSTAYMELSSLRSEDTAVYYCNEGTPTGPYYFDYWGQGTLVTVSS VL: EIQMTQSPSSLSASVGDRVTITCRASSSVPYMHWYQQKPGKAPKLLIYSTSNLASGVPSRFSGSGSGTDFTLTISSVQPEDFATYYCQQRSSYPLTFGGGTKLEIK	91500	5.41
P1AE3096 (antibody, IgG1, V domains shown, huIgG1 P329G LALA; also called MFE-H29 / MFE-L28) VH: QVQLVQSGAEVKKPGSSVKVSCKASGFNIKDSYMHWVRQAPGQGLEWMGWIDPENGDTEYAPKFQGRVTITTDESTSTAYMELSSLRSEDTAVYYCNEGTPTGPYYFDYWGQGTLVTVSS VL: EIQMTQSPSSLSASVGDRVTITCRASSSVPYMHWLQQKPGKAPKLLIYSTSNLASGVPSRFSGSGSGTDFTLTISSVQPEDFATYYCQQRSSYPLTFGGGTKLEIK	87800	10.5
P1AE3090 (antibody, IgG1, V domains shown, huIgG1 P329G LALA; also called MFE-H29 / MFE-L29) VH: QVQLVQSGAEVKKPGSSVKVSCKASGFNIKDSYMHWVRQAPGQGLEWMGWIDPENGDTEYAPKFQGRVTITTDESTSTAYMELSSLRSEDTAVYYCNEGTPTGPYYFDYWGQGTLVTVSS VL: EIQMTQSPSSLSASVGDRVTITCRASSSVPYMHWLQQKPGKAPKLLIYSTSSLQSGVPSRFSGSGSGTDFTLTISSVQPEDFATYYCQQRSSYPLTFGGGTKLEIK	61800	42
P1AE3103 (antibody, IgG1, V domains shown, huIgG1 P329G LALA; also called MFE-H28 / MFE-L27; huMFE23-L27-H28) VH: QVQLVQSGAEVKKPGASVKVSCKASGFNIKDSYMHWVRQAPGQGLEWMGWIDPENGDTEYAPKFQGRVTMTRDTSISTAYMELSRLRSDDTAVYYCNEGTPTGPYYFDYWGQGTLVTVSS VL: EIQMTQSPSSLSASVGDRVTITCRASSSVPYMHWYQQKPGKAPKLLIYSTSNLASGVPSRFSGSGSGTDFTLTISSVQPEDFATYYCQQRSSYPLTFGGGTKLEIK	92400	5.88
P1AE3093 (antibody, IgG1, V domains shown, huIgG1 P329G LALA; also called MFE-H26 / MFE-L29) VH: QVQLVQSGAEVKKPGASVKVSCKASGFNIKDSYMHWVRQAPGQGLEWMGWIDPENGGTNYAQKFQGRVTMTTDTSISTAYMELSRLRSDDTAVYYCNEGTPTGPYYFDYWGQGTLVTVSS VL: EIQMTQSPSSLSASVGDRVTITCRASSSVPYMHWLQQKPGKAPKLLIYSTSSLQSGVPSRFSGSGSGTDFTLTISSVQPEDFATYYCQQRSSYPLTFGGGTKLEIK	68100	16.1

Next, values leading:

AUC	EC50 [nM]	Binder
104000	6.58	P1AE3101 (antibody, IgG1, V domains shown, huIgG1 P329G LALA; also called MFE-H24 / MFE-L28; huMFE23-L28-H24) VH: QVQLVQSGAEVKKPGASVKVSCKASGFNIKDSYMHWVRQAPGQGLEWMGWIDPENGDTEYAPKFQGRVTMTTDTSISTAYMELSRLRSDDTAVYYCNEGTPTGPYYFDYWGQGTLVTVSS VL: EIQMTQSPSSLSASVGDRVTITCRASSSVPYMHWLQQKPGKAPKLLIYSTSNLASGVPSRFSGSGSGTDFTLTISSVQPEDFATYYCQQRSSYPLTFGGGTKLEIK
84900	11.1	P1AE3095 (antibody, IgG1, V domains shown, huIgG1 P329G LALA; also called MFE-H24 / MFE-L29) VH: QVQLVQSGAEVKKPGASVKVSCKASGFNIKDSYMHWVRQAPGQGLEWMGWIDPENGDTEYAPKFQGRVTMTTDTSISTAYMELSRLRSDDTAVYYCNEGTPTGPYYFDYWGQGTLVTVSS VL: EIQMTQSPSSLSASVGDRVTITCRASSSVPYMHWLQQKPGKAPKLLIYSTSSLQSGVPSRFSGSGSGTDFTLTISSVQPEDFATYYCQQRSSYPLTFGGGTKLEIK
95300	10.2	P1AE3099 (antibody, IgG1, V domains shown, huIgG1 P329G LALA; also called MFE-H26 / MFE-L28) VH: QVQLVQSGAEVKKPGASVKVSCKASGFNIKDSYMHWVRQAPGQGLEWMGWIDPENGGTNYAQKFQGRVTMTTDTSISTAYMELSRLRSDDTAVYYCNEGTPTGPYYFDYWGQGTLVTVSS VL: EIQMTQSPSSLSASVGDRVTITCRASSSVPYMHWLQQKPGKAPKLLIYSTSNLASGVPSRFSGSGSGTDFTLTISSVQPEDFATYYCQQRSSYPLTFGGGTKLEIK
98700	6.45	P1AE3097 (antibody, IgG1, V domains shown, huIgG1 P329G LALA; also called MFE-H28 / MFE-L28; huMFE23-L28-H28) VH: QVQLVQSGAEVKKPGASVKVSCKASGFNIKDSYMHWVRQAPGQGLEWMGWIDPENGDTEYAPKFQGRVTMTRDTSISTAYMELSRLRSDDTAVYYCNEGTPTGPYYFDYWGQGTLVTVSS VL: EIQMTQSPSSLSASVGDRVTITCRASSSVPYMHWLQQKPGKAPKLLIYSTSNLASGVPSRFSGSGSGTDFTLTISSVQPEDFATYYCQQRSSYPLTFGGGTKLEIK
6910	47.6	P1AE3094 (antibody, IgG1, V domains shown, huIgG1 P329G LALA; also called MFE-H25 / MFE-L29) VH: QVQLVQSGAEVKKPGASVKVSCKASGYTFKDSYMHWVRQAPGQGLEWMGWIDPENGDTEYAPKFQGRVTMTTDTSISTAYMELSRLRSDDTAVYYCNEGTPTGPYYFDYWGQGTLVTVSS VL: EIQMTQSPSSLSASVGDRVTITCRASSSVPYMHWLQQKPGKAPKLLIYSTSSLQSGVPSRFSGSGSGTDFTLTISSVQPEDFATYYCQQRSSYPLTFGGGTKLEIK
55900	7.92	P1AE3105 (antibody, IgG1, V domains shown, huIgG1 P329G LALA; also called MFE-H26 / MFE-L27; huMFE23-L27-H26) VH: QVQLVQSGAEVKKPGASVKVSCKASGFNIKDSYMHWVRQAPGQGLEWMGWIDPENGGTNYAQKFQGRVTMTTDTSISTAYMELSRLRSDDTAVYYCNEGTPTGPYYFDYWGQGTLVTVSS VL: EIQMTQSPSSLSASVGDRVTITCRASSSVPYMHWYQQKPGKAPKLLIYSTSNLASGVPSRFSGSGSGTDFTLTISSVQPEDFATYYCQQRSSYPLTFGGGTKLEIK
74100	9.89	P1AE3100 (antibody, IgG1, V domains shown, huIgG1 P329G LALA; also called MFE-H25 / MFE-L28; huMFE23-L28-H25) VH: QVQLVQSGAEVKKPGASVKVSCKASGYTFKDSYMHWVRQAPGQGLEWMGWIDPENGDTEYAPKFQGRVTMTTDTSISTAYMELSRLRSDDTAVYYCNEGTPTGPYYFDYWGQGTLVTVSS VL: EIQMTQSPSSLSASVGDRVTITCRASSSVPYMHWLQQKPGKAPKLLIYSTSNLASGVPSRFSGSGSGTDFTLTISSVQPEDFATYYCQQRSSYPLTFGGGTKLEIK
83100	14.6	P1AE3091 (antibody, IgG1, V domains shown, huIgG1 P329G LALA; also called MFE-H28 / MFE-L29) VH: QVQLVQSGAEVKKPGASVKVSCKASGFNIKDSYMHWVRQAPGQGLEWMGWIDPENGDTEYAPKFQGRVTMTRDTSISTAYMELSRLRSDDTAVYYCNEGTPTGPYYFDYWGQGTLVTVSS VL: EIQMTQSPSSLSASVGDRVTITCRASSSVPYMHWLQQKPGKAPKLLIYSTSSLQSGVPSRFSGSGSGTDFTLTISSVQPEDFATYYCQQRSSYPLTFGGGTKLEIK
